Source: publication PMC10121170 (Science Advances, 2023)
No end group written: not given here.

How the values were obtained:
[1] = biological target: human AURKA_(123–403), kinase domain of Aurora kinase A, wild type (human) (UniProt O14965); assay: ITC
[2] = biological target: T1, AURKA region (AURKA_(123–403)C290,393A) of CEP192-AURKA_(chimera) (human, UniProt O14965 123-403, C290,393A | C290,393A); assay: crystal structure
T1 sequence: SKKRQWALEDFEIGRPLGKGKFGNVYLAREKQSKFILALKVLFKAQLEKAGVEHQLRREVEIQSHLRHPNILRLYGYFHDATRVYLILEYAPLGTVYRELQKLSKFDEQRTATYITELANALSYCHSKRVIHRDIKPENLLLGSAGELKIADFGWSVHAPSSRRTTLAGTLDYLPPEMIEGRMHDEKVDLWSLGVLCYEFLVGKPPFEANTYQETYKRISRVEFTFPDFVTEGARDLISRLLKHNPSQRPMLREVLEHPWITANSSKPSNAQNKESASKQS

AURKA_(123–403) W128A = biological target: T2, AURKA_(123–403) W128A (human, UniProt O14965 123-403, W128A); assay: fluorescence polarisation
T2 sequence: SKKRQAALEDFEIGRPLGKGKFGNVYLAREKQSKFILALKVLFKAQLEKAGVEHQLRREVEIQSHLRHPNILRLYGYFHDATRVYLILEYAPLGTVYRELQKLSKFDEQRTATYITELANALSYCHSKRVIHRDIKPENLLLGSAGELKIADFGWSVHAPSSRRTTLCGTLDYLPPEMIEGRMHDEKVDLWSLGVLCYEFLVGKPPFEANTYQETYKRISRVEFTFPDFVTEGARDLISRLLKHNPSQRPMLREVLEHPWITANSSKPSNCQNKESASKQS

SEC-MALS = biological target: the molecule itself; assay: SEC-MALS

## N-terminal MBP-tagged AURKA-BD of human CEP192 residues 440 to 631 (from UniProt Q8TEP8 440-631) (domain or fragment)
[1]
  Kd: 1.2 µM
  stoichiometry N: 1

## EDFRSGSEAFDLIAQDEEEFNK (domain or fragment) [CEP192 region (residues 506–527) of CEP192-AURKA_(chimera)]
[2]
  binding result: binds

## EDFRSGSEAFDLIAQDEEEFNKEHQFIQEEN (also: FITC label, position not given here) [FITC-labeled CEP192_(506–536) peptide]
AURKA_(123–403) W128A
  binding result: binds

B1: CEP192-AURKA_(chimera): CEP192_(506–527) fused to AURKA_(123–403)C290,393A without linker residues (other)
chain: EDFRSGSEAFDLIAQDEEEFNKSKKRQWALEDFEIGRPLGKGKFGNVYLAREKQSKFILALKVLFKAQLEKAGVEHQLRREVEIQSHLRHPNILRLYGYFHDATRVYLILEYAPLGTVYRELQKLSKFDEQRTATYITELANALSYCHSKRVIHRDIKPENLLLGSAGELKIADFGWSVHAPSSRRTTLAGTLDYLPPEMIEGRMHDEKVDLWSLGVLCYEFLVGKPPFEANTYQETYKRISRVEFTFPDFVTEGARDLISRLLKHNPSQRPMLREVLEHPWITANSSKPSNAQNKESASKQS
SEC-MALS
  stoichiometry N: 3
